Reference: the DeepSol protein solubility set

Assay: soluble on expression in E. coli; label from the status in PepcDB or PDB records

Row | Sequence | soluble on expression in E. coli
1 | MKKISIEERPDWRATAEREGFNFHTIDGERYWDERGYYLFTEQQITRDLEAPTQALHQMCMDAVARVVDSEELLHQLAIPPAFFDVIQTSWKQGHPHLYARFDFAYDGTGPAKMYEINADTPTSLMEAGAFQLLWLEEQMARGVLPAHASQFNSIAEDLVRAFAEFPGASPFYFAAMSGSVEDRVTTDFLRRMAAHVGIDARHIDIEDIGLNDQGRFVDLDGRWIERLFKLHAWEHIFHEAFGKNVTASGTQFVEPAWKAILSNKGILPLLWQFNEGHPNLLPSRVDQDVTKPVPKGWVRKPYFSREGANIEMRTPGDQVIAVDGPYTDAPYILQAYSPLPKFGDSYTLIGSWVIGDLASGIGIREDDSLITKDTSRFLPHVVID | not soluble
2 | MGSDKIHHHHHHLPTIEQNRAPPFLAGLFCAIDLERRFLSNGKQKDFIMLDANTAQNPALLTVGYEGTDLRRFLACLEQSGVKTLVDVRERAQSRKKGFSKTALAEALAGIGIRYVHLRDLGDPKPGRDAARAGDYETFRKVFTSHMDTDAAKSALSELDTLAKEDRTCILCFERCHTECHRAIVATYLKELSPYDVVHVEV | not soluble
3 | MAHHHHHHMLQQLNEEKNIRKALESRIREVNVSLRRYGVCIADAKEVTNESREFSEATDAFILAALEEKDTMDGDLCAKLQQQLRVKQRLTELRHQHQRKLDDMLRKYELIKTGRTTANNGAGADNNMLHPGLVDEAAAQQIKELLHRKDEEIERVIKEKEKTCDRIVKKLNKCELRIKELEATLEEERVQSTEERQELDRENRELQRYNQQLSVELETLRGQLSEMKEEMDFMERAKSAEIERWKEEAANGAGRLEEMRFKMAAYSELQKSYDRLQEQLQRTEVSLKEKSDNLENTRQMVKWSNSLLATEKQKVEQMEMMLKQQEVEMRRREEQLKSEMMNDINKQVAANNRRMQEQAAQYQELISQEQDKQKSIMKKVKSSRKETQKAAQRYDEMILENEALLSKLEELKVTSMRIFLEKQEAQRELEALRPTKHVANRRL | not soluble
4 | MASYRVAALYRFTRFEDPAAIQGPLAALCCSLGVKGTLLLAREGINGTIAGEDAAIEAVLAHIRALPGCADLTPKTAWAERMPFYRMKVRLKKEIVTLGEPDLDPTDAGTYVEPADWNALISDPDVLVIDTRNAYEVAVGRFEGAIDPQTASFADFPAWFRDWRKSVEAQRGPEAPLKVAMYCTGGIRCEKSTAFLKAEGVEQVFHLKGGVLDYLEQIPQPESLWRGECFVFDERVSVGHGLVKGDHVLCRGCRMPVSPQDQASPLYVEGVACPACHDQRNEEQKARAAERHRQVLHCEALGVDHVGATLPTKIDLEHHHHHH | not soluble
5 | KKGYEVLRDPHLNKGMAFTLEERQQLNIHGLLPPCFLGQDAQVYSILKNFERLTSDLDRYILLMSLQDRNEKLFYKVLTSDIERFMPIVYTPTVGLACQHYGLAFRRPRGLFITIHDRGHIATMLQSWPESVIKAIVVTDGERILGLGDLGCYGMGIPVGKLALYTACGGVKPHQCLPVMLDVGTDNETLLKDPLYIGLRHKRIRGQAYDDLLDEFMEAVTSRYGMNCLIQFEDFANANAFRLLHKYRNKYCTFNDDIQGTASVAVAGLLAALRITKNRLSDHTVLFQGAGEAALGIANLIVMAMQKEGVSKEEAIKRIWMVDSKGLIVKGRASLTPEKEHFAHEHCEMKNLEDIVKDIKPTVLIGVAAIGGAFTQQILQDMAAFNKRPIIFALSNPTSKAECTAEQLYKYTEGRGIFASGSPFDPVTLPSGQTLYPGQGNNSYVFPGVALGVISCGLKHIGDDVFLTTAEVIAQEVSEENLQEGRLYPPLVTIQQVSLKIAVRIAKEAYRNNTASTYPQPEDLEAFIRSQVYSTDYNCFVADSYTWPEEAMKVK | soluble
6 | MMKFSVIVPTYNSEKYITELLNSLAKQDFPKTEFEVVVVDDCSTDQTLQIVEKYRNKLNLKVSQLETNSGGPGKPRNVALKQAEGEFVLFVDSDDYINKETLKDAAAFIDEHHSDVLLIKMKGVNGRGVPQSMFKETAPEVTLLNSRIIYTLSPTKIYRTALLKDNDIYFPEELKSAEDQLFTMKAYLNANRISVLSDKAYYYATKREGEHMSSAYVSPEDFYEVMRLIAVEILNADLEEAHKDQILAEFLNRHFSFSRTNGFSLKVKLEEQPQWINALGDFIQAVPERVDALVMSKLRPLLHYARAKDIDNYRTVEESYRQGQYYRFDIVDGKLNIQFNEGEPYFEGIDIAKPKVKMTAFKFDNHKIVTELTLNEFMIGEGHYDVRLKLHSRNKKHTMYVPLSVNANKQYRFNIMLEDIKAYLPKEKIWDVFLEVQIGTEVFEVRVGNQRNKYAYTAETSALIHLNNDFYRLTPYFTKDFNNISLYFTAITLTDSISMKLKGKNKIILTGLDRGYVFEEGMASVVLKDDMIMGMLSQTSENEVEILLSKDIKKRDFKNIVKLNTAHMTYSLKLEHHHHHH | soluble
7 | MATVSDDYAQIDISTEEKDKLVAEVMRHVLFKTHQTAGCPIKREELTQIVTKNYRQRVLPALVIKEAGDRLAATFGYEMRELQRTRAPSTRSGRPSQQQVNVDAKSYVLVSKLDPEVYSKYVEHKEAAHVSGFAFVVISIVHLSGGKISEEDLWHQLRRLGLNESDENHPVLGNNKQALELLVQQRYLLKEKLSGPEGHSMMYELAERALDESISGKLKDYISQVVSTSTAAEVD | soluble
8 | MGSDKIHHHHHHMNTSISASWGRYINAIPPRSGEAALAPLSSFVDGQCIYSFGERADQVYQVEFGAVRVYRLAANGRRQILAFHFGGNWFGLQSRDRHSSNAEAIGVTGVRCISLQEEPLFRPALFSAALDNVSAAQEHQLVIGRQSAIERVAAFLLEMSERSGYSRRFELSMSRVDVADYLALTVETVSRSLTKLKHRGFIELHGARGIELVGYRALQNLCL | not soluble
9 | MCMKQSLFGRVRDAILADFHNVLDEKERKNPIAMLNQYLRDSEREITKIEKLIQRHKTLKSNFARELEQARYFVNKRSKQALIAQEAGELQLHERALEEVAYYEGQVTRLEEMYAGVVEQIDELERRLSEMKNKLKEMHAKRMELMARENMAHANRRMNTAMHKMDENNPFLRFEEIEEHIRDLETRMNEEHERDTFDMKIAKLEREMKEKNDVSLTKELTKLEHHHHHH | not soluble
10 | MSLLEVKNLRIEYPSRHGVHAAVKSLTLDIQRGEIVGVVGESGAGKSTVGNAVIDLLSPPGTIAGGEVYLNGEKISGLSPQAMREVRGSKIGFIFQDPMTSLNPLFTVEHQLTETIHANMQVSAEEAYQRALSLMKQVGIPQPENRLKQYPHQFSGGMRQRVVIAIALAGEPDLIIADEPTTALDVSIQDQILNLIRELCKKNNVGCMLVTHDMGVVSNVTDRVAVMYRGDLVEFGPTAKVLGTPEHPYTRSLISAVPRSDRKLDRFPLVSYIEEAKELKPLDVKSHWLGQSQDHRKYTGPLLKVENVNLRFVTKDSLFESRREYVQASNNVSFAVHEGETFGLVGESGSGKSTIARVIAGLYQPNAGRVTFEGIDLTALKSEHERRPLRRQMQMVFQNPYTSMNPRMKIFDIIAEPIRFHKLTRSESETRQIVNDLLEHVGLGKMAGLKYPHEFSGGQRQRISIARALATRPRLLICDEPTSALDVSVQAQILNLLKDLQDELNLTMLFISHDLPVIRQMCDRVGVMQMGTLLEVAPTEQLFTDPQHEYSKKLISLMPEFTGLRESTTAA | not soluble
11 | MRLSMENIMNNPVIGVVMCRNRLKGHATQTLQEKYLNAIIHAGGLPIALPHALAEPSLLEQLLPKLDGIYLPSSPSNVQPHLYGENGDEPDADPGRDLLSMAIINAALERRIPIFAICRGLQELVVATGGSLHRKLCEQPELLEHREDPELPVEQQYAPSHEVQVEEGGLLSALLPECSNFWVNSLHGQGAKVVSPRLRVEARSPDGLVEAVSVINHPFALGVQWHPEWNSSEYALSRILFEGFITAWQHHIAEKQRL | not soluble
